Results as given in IntAct's records for PubMed 21763481.

B1: B9 domain-containing protein 2 (Mus musculus), Q3UK10 (parent)
chain: MAEVHVIGQIIGATGFSESSLFCKWGIHTGAAWKLLSGVREGQTQVDTPQIGDMAYWSHPIDLHFATKGLQGWPRLHLQVWSQDSFGRCQLAGYGFCHVPSSPGTHQLDCPTWRPLGSWREQLARAFVGGGPQLLHADTIYSGADRYRLHTAAGGTVHLGIGLLLRHFDRYGVEC
partner: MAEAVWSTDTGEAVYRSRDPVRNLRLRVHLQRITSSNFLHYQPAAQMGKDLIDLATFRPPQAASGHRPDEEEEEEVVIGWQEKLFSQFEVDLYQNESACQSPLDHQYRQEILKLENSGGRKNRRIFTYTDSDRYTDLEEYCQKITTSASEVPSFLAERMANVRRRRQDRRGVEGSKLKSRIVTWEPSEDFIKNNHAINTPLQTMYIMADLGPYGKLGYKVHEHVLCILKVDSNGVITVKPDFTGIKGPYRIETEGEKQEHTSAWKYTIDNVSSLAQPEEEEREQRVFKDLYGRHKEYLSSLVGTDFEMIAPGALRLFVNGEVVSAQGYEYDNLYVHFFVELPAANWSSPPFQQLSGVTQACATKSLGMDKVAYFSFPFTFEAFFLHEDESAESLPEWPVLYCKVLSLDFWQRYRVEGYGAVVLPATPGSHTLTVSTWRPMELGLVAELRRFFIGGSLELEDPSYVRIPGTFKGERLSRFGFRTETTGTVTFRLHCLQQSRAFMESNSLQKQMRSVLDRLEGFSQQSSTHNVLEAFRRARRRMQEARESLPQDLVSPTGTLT
B2: B9 domain-containing protein 2 (Mus musculus), Q3UK10 (parent)
chain: B1 chain
partner: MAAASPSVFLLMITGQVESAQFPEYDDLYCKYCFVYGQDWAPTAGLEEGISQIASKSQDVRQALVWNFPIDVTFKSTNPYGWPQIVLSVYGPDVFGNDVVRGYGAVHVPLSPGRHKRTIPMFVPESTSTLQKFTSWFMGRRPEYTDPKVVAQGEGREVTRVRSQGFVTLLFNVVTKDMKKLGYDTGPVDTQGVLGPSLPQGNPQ

Variants of: B1
Settings: with mks1_mouse Mks1, Q5SW45

Variant	effect of a mutation on the interaction
MAEVHVIGQIIGATGFSESSLFCKWGIHTGAAWKLLSGVREGQTQVDTPQIGDMAYWSHPIDLHFATKGLQGWPRLHLQVWSQDSFGRCQLAGYGFCHVPRSPGTHQLDCPTWRPLGSWREQLARAFVGGGPQLLHADTIYSGADRYRLHTAAGGTVHLGIGLLLRHFDRYGVEC	disrupting interaction

Variants of: B2
Settings: with b9d1_mouse B9d1, Q9R1S0

Variant	effect of a mutation on the interaction
MAEVHVIGQIIGATGFSESSLFCKWGIHTGAAWKLLSGVREGQTQVDTPQIGDMAYWSHPIDLHFATKGLQGWPRLHLQVWSQDSFGRCQLAGYGFCHVPRSPGTHQLDCPTWRPLGSWREQLARAFVGGGPQLLHADTIYSGADRYRLHTAAGGTVHLGIGLLLRHFDRYGVEC	with no effect
